Reference: publication PMC7469880

Target: FIRΔexon2-FLAG (splice variant of FIR lacking exon 2, FLAG-tagged) (human)
Assay: co-IP

| amount detected relative to the FIR–FLAG complex (1.0) | Substance |
| --- | --- |
| 0.35 | SAP130 (subunit of splicing factor 3b), endogenous in HeLa (from UniProt Q15393 1-1217) (natural protein) |
| 0.1 | SAP155 (subunit of splicing factor 3b), endogenous in HeLa (from UniProt O75533 1-1304) (natural protein) |
